Results taken from a protein production outcome set (Wang et al. 2014).

Test: label from the status in PepcDB records
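Also: failed if final PepcDB status was selected cloned or expressed and not failed if soluble or beyond.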

Row | Sequence | protein production
1 | MPDSVEDTSTISLRICLEGHANALALNKDNNQIALAGRSLLKVYSINSNGFTESCNMRGKNQNLSYSANDVAWSTLDSNLLATAATNGVVSVWDLSKFGRQKQLLVYNEHERTAHTVTFHSSEPNILISGSQDGTIKCFDIRSDKSINTYFCNSESVRDVKFSPHTQNIFSAVSENGTVQLWDMRKWDKCMVQFTAHYGPVYTCDWHPTRNWLATGSRDKQIKVWNMDGRPGLEHTIHTIAVVGRVKWRPERTYHIASCALVVDYSVHVWDIRRPYIPFASFNEHTNVTTGIAWQGSDSHCLLSISKDSTIYKHAFKDATRPALKANAQGASLGRFGDISFANKIKEYEPKTSGASNTKSSSFIRRKTNVAGSIQFHLDHSKMYKFMVNDTFSGYPLSESVSRPTQEHESFIGCARELVISGKKLSELCEHNAEVSKKYGKHNATTLWNFIKLFYGSNHFEPPFEHRSSFSNQKNPMNSRRATQVASDWPQQRTELGQDLNGNTPETAHEIDVANVDDDTLGSSGVEHPPTSSVILSETQIISEITFDNFELLRNGFIYVGPTECPKALAFPALHHDVQAARPQLDLKASDHEKSPVS | failed
2 | MKRFPGRDMRSLTELVLGRDKFRTALCCSVVGMLLTLLFLSSCHYTRPDLTSEELSEKTKDSLNYLYDRHYTWNTNLEVTTDSVTMECLPIKDTYIALYKGDRVVVAEFAIHPADSVDSVWVKLAHTQEEQGWIRETELKESFVPTDSISQAIHFFSDTHASYFMIIFALFVGVYLFRAFRRKQLQLVYFNDIDSVYPLFLCLLMAFSATVYESMQVFVPDTWEHFYFNPTLSPFKVPFILSVFLLSIWLFLIVALAVLDDLFRQLTPAAAVFYLLGLMSSCIFCYFFFILMTHIYIGYLFLAFFIWVFAKKVHRNISYKYRCGHCGEKLKEKGICPHCGAINE | failed
3 | MKQKNVYIVIGFMLFALFFGAANLIYPAFLGIYSGHQILWSIIGFCLTGVSLPLLGVIAVAKSGSGDVESLARPISKWYAIFYSSILYLSIGPFFAIPRTGATSFSVGIAPILGDNTTNKAIYAILFFGLSYFLAIKPSKLAENIGKFLTPTLLVVISILVIASFVHPAGNYGDAFNAGVGVNNAFKDFPFIAGLIQGYGTMDALASLVFAILVIEATKQFGAKTDKEMTKITLISGAIAILLLALVYIFVGRIGATSQSLFPFIDGSFTLHGNPVNGGQILSHASRFYLGGIGQAFLAVVIFLACLTTSTGLITSSAEYFHKLVPALSHIAWATIFTLLSAFFYFGGLSVIINWSAPVLFLLYPLTVDLIFLVLAQKCFNNDPIVYRTTIGLTFIPAIFDALLTLSQMTGLFHLPEAVVTFFQKTVPLGQFSMGWIIFAAIGFLIGLILSKTKKS | failed
4 | PYYLFMTMYWHHTSTTPVSTVLITHGYAEHQGRYSALVRSLLNYNFDVVTFDLPGHGYAPGPRACVDVDKLVDFHVALRHRAEQDCRLRTETMCLFGHSMGGLITALSVLEDSSNVSAVALSGPAFSPFPKTPRVVTRMLRCSARIAPRLKVLALPQDAISRDPEVVAAYANDPRNYTGRVPLLTGASMALAGQKALAQASQWDRSVPLLVMHGSADRLADIEGSRNFAASAGGTMRPVDGAFHEIFNEPEAPQLRAELCEWLHANCG | failed
5 | MPFINIKLVPENGGPTNEQKQQLIEGVSDLMVKVLNKNKASIVVIIDEVDSNNYGLGGESVHHLRQKN | failed
6 | MSLAQKLRQASSRLLGVVFELQQPFHGDLVEQIYAAATRRGYDVMLSAVAPSRAEKVAVQALMRERCEAAILLGTRFDTDELGALADRVPALVVARASGLPGVGAVRGDDVAGITLAVDHLTELGHRNIAHIDGADAPGGADRRAGFLAAMDRHGLSASATVVTGGTTETEGAEGMHTLLEMPTPPTAVVAFNDRCATGVLDLLVRSGRDVPADISVVGYDDSRLARIPHVQMTTISQDATHMAEAAVDGALAQISGDKAVDLVLAPHLVRRATTGPVAHREGHHHHHH | not failed
7 | MLVFLTRFTPMNLIRNRWAQIFTQSILGVLIAGGTAWAGDPFRPNNPHNIGDQTEAAFEAIFRDGNYRGAEEILAGAIQAEPNEPLVYAMQASFAYDANDMEGMRKYAQQTLESAQRLAPSDPLRGNLYIAVGHFLEGSYLLKKGSYLQAVGKTGTVFEHLDKASAINPNDPELNLLRGYLDLFLSRYTPFSQSEQVISRFEQYAAPDYLRYRALATTYRDLEKYDLAMANIDRALAITPDNPELQYLKGQFLRNEGRRSMDLGKLQQAQQYYAMALQKQDQLSRALVVQLNHENNAVVDEIQKLAQNPSLKGF | failed
8 | MHRSIRFTFDDRVPRYWHAGRAHTTRFFDCLSFMFPQGEKIFIESVVHFRHKLDKDSALDKAVDDFIYQEASHMREHRAYNQRLCAQGAPVETLERMLLRRRKESARLPASFRLALTASLEHITAILSDQLLRNPAYLKNADPTMAGLWRWHALEEIEHKAVAYDVLCTVERNPLWRYLLRCVAMLSLSVYFTFDLGYFTYHLVRGDKQHRNWREWLRLQWWLFVNPGLLSRIVPAGLFWFVPGFHPNRIDTRALLDTARQALDEQR | failed
9 | RNLEMIDMQIAGTEQLTAFVTFAAANIGAPEQWLTQYYGNLIERKELFGYWHKGKLLAAGECRLFDQYQTEYADLGMIVAQSNRGQGIAKKVLTFLTKHAATQGLTSICSTESNNVAAQKAIAHAGFTSAHRIVQFEFKHA | failed
10 | MAKSLTFSTFSPNNTLKKNVIPIVLLHGWGLNSGVWQPLLELFHRNDESIYQLITIDLPGFGINSAVDIKPYSLANICHHIEQVIDQPAIYLGWSLGGLIATEMSLKYPEKVLASITVASSPYFVEQPTDNWPGIKENVLESFHKQLAQDTAKTISGFLKIQAMGSPHIRQDLKLITQLVMAHTLPSQQTLADSLALLSNSDLRLHLSKIKQPLLRLYGHNDSLVPKEVMEKISYLAPNSDQHLFADASHAPFISHLDDFYQVLVVWLDSHFNLEHHHHHH | failed
11 | MILNTEEYPISIGNEIKYTKEVYDCLQLLRLRTILKEYEVNLILDVGANEGQFASVLRDIGYVGTIISFEPLSKEYRLLSQAASKDSNWYTYNLALGKQNKEQILHVSDKSTFSSFLLSNSLCEQRFGKESIGDKNEVVSVRRLDNFLVEVVKNIDKMRIYLKMDTQGYDLEVFSGAGTLLKNIVALQSEVSVVPIYHSMPDMLYSISLFQEAGFSLSGMYPVTYVKPTLQVIEFDCLMVKADTKIS | failed
12 | MIEQPSPKVYDELLSIWEEAVRSTHHFLTEADIQFYKPLIRHEYLAAVRLYIIREDSGTIAAFMGLSNDCIEMLFVRPNAHGHGYGSRLVEFAIRKKRIYKVDVNEQNAAALGFYLHMGFETTGRDALDATGKPFPILHLQIPPIRLRK | failed
13 | MSVAGLKKQFHKASQLFSEKISGAEGTKLDDEFLDMERKIDVTNKVVAEILSKTTEYLQPNPAYRAKLGMLNTVSKIRGQVKTTGYPQTEGLLGDCMLKYGKELGEDSTFGNALIEVGESMKLMAEVKDSLDINVKQTFIDPLQLLQDKDLKEIGHHLKKLEGRRLDYDYKKKRVGKIPDEEVRQAVEKFEESKELAERSMFNFLENDVEQVSQLAVFIEAALDYHRQSTEILQELQSKLQMRISAASSVPRREYKPRPVKRSSSELNGVSTTSVVKTTGSNIPMDQPCCRGLYDFEPENQGELGFKEGDIITLTNQIDENWYEGMIHGESGFFPINYVEVIVPLPQ | failed
14 | MSLAEVNPMSKPLVRWPINPLRTAVIVVDMQKVFCEPTGALYVKSTADIVQPIQKLLQAARAAQVMVIYLRHIVRGDGSDTGRMRDLYPNVDQILARHDPDVEVIEALAPQSDDVIVDKLFYSGFHNTDLDTVLRARDVDTIIVCGTVTNVCCETTIRDGVHREYKVIALSDANAAMDYPDVGFGAVSAADVQRISLTTIAYEFGEVTTTAEVIRRIESAYPHGREGHHHHHH | not failed
15 | MVADAAAAGSGGVGVCARWPRASAEGARMKLTPRVHDWYVGRVVLSTVLLTWAVLLGLDLVNAFASEAKDIGQGSYTFGHAVAYVAYTVPRRAYTLFPTAAVIGALMGLGQLAATSELTALRALGVSRKRMSASVVAAMALLTASMVISGETIGPWAQNQADTLKASARYNSDMAASLYAGLWAREGDTFLNALSGEEKLLDGGDTALDLHDVRLYHLDSSGRMQQLTYASVAEHRDGRWTLRQVRRDTFQERSVQRETFPELPWQSQLNPAALAAGLAKPRNLSAHDLEQSIEYRSRNGLDARDYEDQYWSRWFYPLNVLALCMAAIPFSFGSLRSGGLGKRLFLGILFALGFWLLQLFFGRMAGALKLDYRIAYALPPMVMLGVSAWLFRRRSS | failed
